Legend:
Assay in all cases: cell-based or functional assay
Gn of RVFV-MP-12 = Gn of RVFV-MP-12 (Rift Valley Fever Virus strain MP-12)
Gn of RVFV-SA51 = Gn of RVFV-SA51 (Rift Valley Fever Virus strain SA51)
Gn of RVFV-ZH501 = Gn of RVFV-ZH501 (Rift Valley Fever Virus strain ZH501)
Gc of RVFV-SA51 = Gc of RVFV-SA51 (Rift Valley Fever Virus strain SA51)
Gc of RVFV-MP-12 = Gc of RVFV-MP-12 (Rift Valley Fever Virus strain MP-12)
Gc of RVFV-ZH501 = Gc of RVFV-ZH501 (Rift Valley Fever Virus strain ZH501)

B1: RVFV-436 (antibody, V domains shown)
VH: QVQLHESGPGLVKPSETLSLTCGVSGYTISSDYYWGWIRQPPGKGLEWIGSIYQNGHTYYNPSLKSRVTISVDTSKNQFSLELSSVTAADTAVYYCARRGDCGADCYHFDYWGRGTAVTVSS
VL: SYEVTQPLSVSVSPGQTASITCSGEKLENKYVSWYQQKPGQSPVLVMYQDFKRPSGIPERFSGSNSGNTATLTISGTQAMDEADYYCQAWDRSTFYVFGTGTKVTVVG
IC50 (ng/ml), neutralization of RVFV-MP-12 (Gn of RVFV-MP-12): 2.5 ng/mL | IC50 (ng/ml), neutralization of RVFV-SA51 (Gn of RVFV-SA51): 4.57 ng/mL | Fold-Change ZH501/MP-12 (ratio of neutralization IC50s) (Gn of RVFV-ZH501): 1.8 fold | IC50 (ng/ml), neutralization of RVFV-ZH501 (Gn of RVFV-ZH501): 4.57 ng/mL

B2: RVFV-401 (antibody, V domains shown)
VH: QITFKESGPTLVKPTQTLTLTCTFSGFSLSTSGVGVGWIRQPPGKALEWLALLYWNDDKRYTPSLRSRLTITKDTSKNQVVLTMTDMDPVDTATYYCARKPRDDFLRLTMMGGGDYFDYWGQGTLVTVSS
VL: SYELTQPPSVSVSPGQTARITCSGDALPDQYAYWYQQKPGQAPVLVLYKDNERPSGIPERFSGSTSGTTVTLTISGVQAEDEADYYCQSADTSTAYHVIFGGGTKLTVL
IC50 (ng/ml), neutralization of RVFV-MP-12 (Gn of RVFV-MP-12): 2120 ng/mL | IC50 (ng/ml), neutralization of RVFV-SA51 (Gn of RVFV-SA51): 1110 ng/mL | Fold-Change ZH501/MP-12 (ratio of neutralization IC50s) (Gn of RVFV-ZH501): 0.2 fold | IC50 (ng/ml), neutralization of RVFV-ZH501 (Gn of RVFV-ZH501): 370 ng/mL

B3: RVFV-250 (antibody, V domains shown)
VH: QVQLQESGPGLAKPSETLSLTCTVSGGSISSYFWSWIRQPAGKGLEWIGRIHTTGSTNYNPSLKNRVIMSVDTSKNQFSLNLSSVTAADTAVYYCAREGTAFDIWGQGTMVTVSS
VL: SYELTQSPSVSVSPGQTASIPCSGDKLGDKYACWYQQKPGQSPVLVIYQDTKRPSGIPERFSGSNSGNTATLTISETQAMDEADYYCQAWDSSTPWVFGGGTKLTVL
IC50 (ng/ml), neutralization of RVFV-SA51 (Gc of RVFV-SA51): 120 ng/mL | IC50 (ng/ml), neutralization of RVFV-MP-12 (Gc of RVFV-MP-12): 51 ng/mL | Fold-Change ZH501/MP-12 (ratio of neutralization IC50s) (Gc of RVFV-ZH501): 2.4 fold | IC50 (ng/ml), neutralization of RVFV-ZH501 (Gc of RVFV-ZH501): 120 ng/mL

B4: RVFV-405 (antibody, V domains shown)
VH: EVQLVESGGGLVQPGGSLRLSCAASGFTFSSFEMNWVRQAPGKGLEWVSYISRSGTTKHYADSVKGRFAISRDDAKNSLYLQMNSLRAEDTAVYYCARGGARVLQAPLDYWGQGTLVTVSS
VL: SYELTQPPSVSVAPGETARITCGGTNIGNKSVRWYQQKPGQAPVLVIYYDNDRPSGIPERFSGSNSGNTATLTISRVEAGDEADYYCQVWDNSSDHAVFGGGTKLTVL
IC50 (ng/ml), neutralization of RVFV-MP-12 (Gn of RVFV-MP-12): 30000 ng/mL | IC50 (ng/ml), neutralization of RVFV-SA51 (Gn of RVFV-SA51): 30000 ng/mL | Fold-Change ZH501/MP-12 (ratio of neutralization IC50s) (Gn of RVFV-ZH501): 1 fold | IC50 (ng/ml), neutralization of RVFV-ZH501 (Gn of RVFV-ZH501): 30000 ng/mL

B5: RVFV-326 (antibody, V domains shown)
VH: EAQLVESGGGLVKPGGSLRLSCAASGFSFSYAWMSWVRRLPGKGLEWVGRIKGKADGETTDYAAPVKGRFTISRDDSKTTVYLQMNTLKIEDTGVYYCTTDIGDFYDSIGYSYTDYWGQGTLVTVSS
VL: EIVLTQSPATLSLSPGERATLSCRASQSVSSYLAWYQQKPGQAPRLLIYDASNRATGIPVRFSGSGSGTDFTLTISSLEPEDFALYYCQQRSDWPPTFGQGTKVEIK
IC50 (ng/ml), neutralization of RVFV-SA51 (Gc of RVFV-SA51): 370 ng/mL | IC50 (ng/ml), neutralization of RVFV-MP-12 (Gc of RVFV-MP-12): 70 ng/mL | Fold-Change ZH501/MP-12 (ratio of neutralization IC50s) (Gc of RVFV-ZH501): 15.9 fold | IC50 (ng/ml), neutralization of RVFV-ZH501 (Gc of RVFV-ZH501): 1110 ng/mL

B6: RVFV-379 (antibody, V domains shown)
VH: QVQLQESGPGLVKPSQTLSLTCTVSGDSISGGDYYWSWIRRPAGEGLEWIGRVHTTGSTDYNPSLRTRVTISIDTSKNHFFLKMTSVTAADTAVYYCAREGDYSAWFDPWGQGALVTVSS
VL: DIQMTQSPSSLSASIGDRVTITCRASQHIESFLNWYQQKPGKAPKLLIYIASTLQGGVPSRFSGRGFGTDFTLTINSLQPEDFATYYCQQSYTISPITFGQGTRLEIK
IC50 (ng/ml), neutralization of RVFV-MP-12 (Gn of RVFV-MP-12): 1.3 ng/mL | IC50 (ng/ml), neutralization of RVFV-SA51 (Gn of RVFV-SA51): 13 ng/mL | Fold-Change ZH501/MP-12 (ratio of neutralization IC50s) (Gn of RVFV-ZH501): 3.5 fold | IC50 (ng/ml), neutralization of RVFV-ZH501 (Gn of RVFV-ZH501): 4.57 ng/mL

B7: RVFV-426 (antibody, V domains shown)
VH: QVQLQESGPGLLKPSQTLSLTCGVSGDSITSTGDSWTWIRQPPGKGLEWIGYIYYSGSAYYNPSLKSRVTISVDTSKNQFSLRLRSVTAADTAVYYCARALEYGAGSWAAAFWGQGILVTVSS
VL: SYEVTQPPSVSVSPGQTASITCSGDKLVERYVSWYQQKPGQSPLLVIYHDIKRPSGIPERFSGSNSGNTATLTISGTQPMDEADYYCQAWDSSTVLFGGGTKLTVL
IC50 (ng/ml), neutralization of RVFV-MP-12 (Gn of RVFV-MP-12): 9.1 ng/mL | IC50 (ng/ml), neutralization of RVFV-SA51 (Gn of RVFV-SA51): 120 ng/mL | Fold-Change ZH501/MP-12 (ratio of neutralization IC50s) (Gn of RVFV-ZH501): 4.5 fold | IC50 (ng/ml), neutralization of RVFV-ZH501 (Gn of RVFV-ZH501): 41 ng/mL

B8: RVFV-296 (antibody, V domains shown)
VH: QVQLVQSGSELKKSGASVKVSCRASGYTFTTYVMNWVRQAPGQGLEWMGWINTNTGNPTYAQGFTGRFVFSLDTSVSTAYLQINSLKAEDTAVYYCAREYNSFDYWGQGTLVTVSS
VL: QSVLTQPPSVSGAPGQRVTISCTGSSSNIGAGYDVHWYQQLPGTAPKLLIYDNNNRPSGVPDRFSGSRSGTSTSLAITGLQAEDEADYYCQSYDFRLSGSVFGGGTKVTVL
IC50 (ng/ml), neutralization of RVFV-MP-12 (Gn of RVFV-MP-12): 638 ng/mL | IC50 (ng/ml), neutralization of RVFV-SA51 (Gn of RVFV-SA51): 120 ng/mL | Fold-Change ZH501/MP-12 (ratio of neutralization IC50s) (Gn of RVFV-ZH501): 0.2 fold | IC50 (ng/ml), neutralization of RVFV-ZH501 (Gn of RVFV-ZH501): 120 ng/mL

B9: RVFV-381 (antibody, V domains shown)
VH: QEQLVESGGGVVQPGRSLRLSCAASGFTLRGYGIYWVRQAPGKGLEWVAVISHDGKNESYTDSVKGRFSISRDKSKNTVFLQMNSLTTQDTSVYYCARWTEGSEEFYYHGLDVWGQGTTVTVSP
VL: SYELTQPPSVSVSPGQTARITCSGHLLPKQYAYWYQQKPGQAPTLVIYADYNRASGIPERFSGASSGTTVTLTITGVKAEDQADYYCQSIDNRFHYPMIFGGGTKLTVL
IC50 (ng/ml), neutralization of RVFV-MP-12 (Gn of RVFV-MP-12): 4440 ng/mL | IC50 (ng/ml), neutralization of RVFV-SA51 (Gn of RVFV-SA51): 10000 ng/mL | Fold-Change ZH501/MP-12 (ratio of neutralization IC50s) (Gn of RVFV-ZH501): 2.3 fold | IC50 (ng/ml), neutralization of RVFV-ZH501 (Gn of RVFV-ZH501): 10000 ng/mL

B10: RVFV-226 (antibody, V domains shown)
VH: EVQLVESGGGLVQPGRSLRLSCAASGFTFDDYAMHWVRQAPGKGLEWVSGISWNSGSIGYVDSVKGRFTISRDNAKNSLYLQMNSLRAEDTALYYCAKGLVGAIHDAFDIWGQGTMVTVSS
VL: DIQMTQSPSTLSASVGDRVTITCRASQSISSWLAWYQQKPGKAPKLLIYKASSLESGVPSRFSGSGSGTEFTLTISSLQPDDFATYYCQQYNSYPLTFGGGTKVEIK
IC50 (ng/ml), neutralization of RVFV-MP-12 (Gn of RVFV-MP-12): 7690 ng/mL | IC50 (ng/ml), neutralization of RVFV-SA51 (Gn of RVFV-SA51): 3330 ng/mL | Fold-Change ZH501/MP-12 (ratio of neutralization IC50s) (Gn of RVFV-ZH501): 1.3 fold | IC50 (ng/ml), neutralization of RVFV-ZH501 (Gn of RVFV-ZH501): 10000 ng/mL

B11: RVFV-429 (antibody, V domains shown)
VH: QVQLVQSGAEVKKPGSSVKVSCRASGGTFSSYTISWVRQAPGQGLEWMGGIIPILGLTKFAQKFQDRVTITADISATTTYMELSSLTSEDTAVYYCARNGEQLEWSYYYGMDVWGQGTTVTVSS
VL: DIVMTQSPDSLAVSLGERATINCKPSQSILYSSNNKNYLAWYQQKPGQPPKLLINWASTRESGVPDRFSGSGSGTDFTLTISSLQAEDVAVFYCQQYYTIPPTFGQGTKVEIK
IC50 (ng/ml), neutralization of RVFV-MP-12 (Gn of RVFV-MP-12): 0.9 ng/mL | IC50 (ng/ml), neutralization of RVFV-SA51 (Gn of RVFV-SA51): 4.57 ng/mL | Fold-Change ZH501/MP-12 (ratio of neutralization IC50s) (Gn of RVFV-ZH501): 5.1 fold | IC50 (ng/ml), neutralization of RVFV-ZH501 (Gn of RVFV-ZH501): 4.57 ng/mL

B12: RVFV-121 (antibody, V domains shown)
VH: QMQLQESGPGLVKPSGTLSLTCAVSGDSISTSTWWSWVRQSPGKGLEWIGEIYHSESTNYNPSLKSRVSLSLDKSKNQLSLRLSSVTAADTGVYYCARGSLVFDYWGQGAQVVVSS
VL: EIVMTQSPATLSVSPGERATLSCRASQSVSSNLAWYQQKPGQAPRLLIYAASTRATGIPARFSGSGSGTEFTLTISSLQSEDFAVYYCQQFNNWPRTFGQGTKVEIK
IC50 (ng/ml), neutralization of RVFV-SA51 (Gc of RVFV-SA51): 1110 ng/mL | IC50 (ng/ml), neutralization of RVFV-MP-12 (Gc of RVFV-MP-12): 35 ng/mL | Fold-Change ZH501/MP-12 (ratio of neutralization IC50s) (Gc of RVFV-ZH501): 31.7 fold | IC50 (ng/ml), neutralization of RVFV-ZH501 (Gc of RVFV-ZH501): 1110 ng/mL

B13: RVFV-249 (antibody, V domains shown)
VH: QVLLVQSEAEVRKPGASVKISCKTSGYTFTTYFMHWVRQAPGQGLEWVAIVDPSTGNTGYAQRFQGRVTVTRDTSTGTLFMELTSLTTEDTAMYYCGRDRGSRAVDSWGQGTLVTVFS
VL: QSVLTQPPSVSGAPGQRVTISCSGSSSNVGPNTVSWYQQLPGVAPKLLIYRNNQRPSGVPDRFSGSKFGTSASLVIGGLQSEDEADYYCAAWDDSLNGHMVFGGGTKVAVL
IC50 (ng/ml), neutralization of RVFV-SA51 (Gc of RVFV-SA51): 30000 ng/mL | IC50 (ng/ml), neutralization of RVFV-MP-12 (Gc of RVFV-MP-12): 6790 ng/mL | Fold-Change ZH501/MP-12 (ratio of neutralization IC50s) (Gc of RVFV-ZH501): 4.4 fold | IC50 (ng/ml), neutralization of RVFV-ZH501 (Gc of RVFV-ZH501): 30000 ng/mL
